The target in the test is T1, human nucleolin (His-tag fusion protein) (human, UniProt P19338 1-710).
T1 construct: nucleolin, human, amplified from HEK293 cDNA into pET-28a; the printed primers run from the start codon to the stop codon; this is read from the printed primers; source: E. coli Rosetta 2(DE3), purified (Ni-NTA agarose)
In words: SPR; Biacore T100, 25 °C; one protein immobilised on a CM5 chip (200 RU), analytes at 0-50 nM, 180 s at 10 μl/min; 25 mM Tris-HCl, 500 mM NaCl, 10% glycerol, 1% Triton X-100, pH 8.0. Conditions: both partners purified. In general terms: SPR reads the build-up and loss of mass on a sensor chip optically.

T1 sequence (P19338 whole entry, the tested form may be a part): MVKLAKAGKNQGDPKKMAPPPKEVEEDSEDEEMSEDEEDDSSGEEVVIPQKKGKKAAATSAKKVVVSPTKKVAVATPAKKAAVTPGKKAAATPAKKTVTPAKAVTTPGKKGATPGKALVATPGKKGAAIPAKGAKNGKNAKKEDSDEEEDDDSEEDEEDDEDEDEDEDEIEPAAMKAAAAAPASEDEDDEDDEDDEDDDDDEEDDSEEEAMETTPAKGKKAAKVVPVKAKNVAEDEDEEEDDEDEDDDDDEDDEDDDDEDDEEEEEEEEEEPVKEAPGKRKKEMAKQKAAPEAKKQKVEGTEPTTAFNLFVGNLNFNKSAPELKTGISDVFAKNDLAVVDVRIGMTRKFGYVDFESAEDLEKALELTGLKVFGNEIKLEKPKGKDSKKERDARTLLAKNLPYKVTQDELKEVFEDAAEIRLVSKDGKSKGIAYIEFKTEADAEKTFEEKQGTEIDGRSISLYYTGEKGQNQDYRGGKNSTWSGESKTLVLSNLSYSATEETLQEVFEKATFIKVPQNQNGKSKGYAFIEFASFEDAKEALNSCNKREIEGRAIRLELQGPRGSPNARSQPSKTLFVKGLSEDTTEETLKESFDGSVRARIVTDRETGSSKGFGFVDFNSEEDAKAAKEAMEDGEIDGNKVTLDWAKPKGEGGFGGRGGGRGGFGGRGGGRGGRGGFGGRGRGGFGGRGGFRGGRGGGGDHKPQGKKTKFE

B1: human fibrillarin (His-tag fusion protein) (natural protein, UniProt P22087 1-321, looked up)
chain: MKPGFSPRGGGFGGRGGFGDRGGRGGRGGFGGGRGRGGGFRGRGRGGGGGGGGGGGGGRGGGGFHSGGNRGRGRGGKRGNQSGKNVMVEPHRHEGVFICRGKEDALVTKNLVPGESVYGEKRVSISEGDDKIEYRAWNPFRSKLAAAILGGVDQIHIKPGAKVLYLGAASGTTVSHVSDIVGPDGLVYAVEFSHRSGRDLINLAKKRTNIIPVIEDARHPHKYRMLIAMVDVIFADVAQPDQTRIVALNAHTFLRNGGHFVISIKANCIDSTASAEAVFASEVKKMQQENMKPQEQLTLEPYERDHAVVVGVYRPPPKVKN
notes: fibrillarin, human, amplified from HEK293 cDNA into pET-28a; the printed primers run from the start codon to the stop codon; this is read from the printed primers; source: E. coli Rosetta 2(DE3), purified (Ni-NTA agarose)
Turning to B1, the binding result is listed as “binds”.

These data come from PMC9813255, “PQBP5/NOL10 maintains and anchors the nucleolus under physiological and osmotic stress conditions” (Nature Communications, 2023).
